Tests used:
[1] = molecular target: T1, B7-H3 antigen H4M (human 4Ig B7-H3 amino acids 27-461 with N-terminal 10 His tag and C-terminal Myc tag) (human, UniProt Q5ZPR3 27-461, Biotinylated in the phage ELISA (labeling amount approximately 2.5, sites not stated); not biotinylated in the scFv protein ELISA); experiment: phage ELISA, scFv displayed on phage, biotinylated H4M captured on streptavidin
T1 construct: Expressed in Expi293; also called biotinylated B7-H3 antigen H4M; not shown: any linker between the tags and the B7-H3 part is not described
T1 sequence: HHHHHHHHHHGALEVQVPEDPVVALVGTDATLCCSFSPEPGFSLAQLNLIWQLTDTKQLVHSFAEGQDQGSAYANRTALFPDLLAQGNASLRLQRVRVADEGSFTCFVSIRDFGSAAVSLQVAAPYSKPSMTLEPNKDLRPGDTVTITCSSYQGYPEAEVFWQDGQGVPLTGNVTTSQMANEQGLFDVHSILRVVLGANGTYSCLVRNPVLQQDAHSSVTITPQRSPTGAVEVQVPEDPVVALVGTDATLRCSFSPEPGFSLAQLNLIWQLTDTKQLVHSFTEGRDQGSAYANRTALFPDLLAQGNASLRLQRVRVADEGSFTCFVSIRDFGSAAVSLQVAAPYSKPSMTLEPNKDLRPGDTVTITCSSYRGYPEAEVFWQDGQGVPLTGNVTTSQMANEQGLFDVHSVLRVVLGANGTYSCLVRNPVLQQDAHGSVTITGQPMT
Protocol: Phage ELISA screening: streptavidin with a concentration of 1 mg/ml was taken and dissolved at room temperature, after being mixed, it was diluted gradually with coating buffer to 5 μg/ml. 100 μL/well of which was then pipetted into each well in a 96-well plate, and 100 μL coating buffer only were pipetted into another 3 wells as a blank control, incubated overnight at 2-8° C. The biotinylated B7-H3 antigen H4M was taken and diluted with 0.5% BSA-PBST diluent to […], then 100 μL of which at a concentration of 20 ng/ml was pipetted into the streptavidin-coated wells, and placed into a microplate shaker. After shaking at 37° C. and 600 rpm for 1 hour, the liquid was discarded, the plate was washed for 3 times with washing buffer and pat dry. The positive phage obtained in the second or third round of panning was taken and dissolved at room temperature, after being mixed, it was diluted 500 times with the diluent. The diluted phage was aliquoted into the microtiter plate at an amount of 100 μL/well, and placed in a microplate shaker, incubating at 37° C. and 600 rpm for 1 hour. After discarding the liquid, the plate was washed for 3 times with washing buffer. Then 100 μL of diluted HRP/Anti-M137 enzyme-linked antibody was aliquoted into each well, placed into the microplate shaker, incubating at 37° C., 600 rpm for 1 hour. After discarding the liquid, the plate was washed for 3 times. Then TMB chromogenic solution was aliquoted in at 100 μL/well and incubated for color development for 15 minutes, then 1 mol/L H₂SO₄ stop solution was aliquoted at 100 μl/well to stop the reaction. A microplate reader was used to measure the absorbance at 450 nm with a wavelength of 650 nm as the reference wavelength.

[2] = molecular target: T1, B7-H3 antigen H4M (human 4Ig B7-H3 …); experiment: scFv protein ELISA on coated H4M
Protocol: ELISA screening of scFv protein: B7-H3 antigen H4M was taken and dissolved at room temperature, then diluted with coating buffer to 2 ng/ml, and aliquoted into a hydrophobic enzyme-labeled plate at 100 μL/well, while 100 μL coating buffer only were pipetted into another 3 wells as a blank control, incubated overnight at 2-8° C. 100 μL of scfv protein sample was pipetted into each well, then the plate was placed into the microplate shaker, incubating for 1 hour at 37° C. and 600 rpm. After discarding the liquid, the plate was washed for 3 times with washing buffer. Then diluted enzyme-linked antibody was aliquoted into each well at 100 μL/well, placed into the microplate shaker, incubating at 37° C., 600 rpm for 1 hour. After discarding the liquid, the plate was washed for 3 times. Then TMB chromogenic solution was aliquoted in at 100 μL/well and incubated for 15 minutes, then 1 mol/L H₂SO₄ stop solution was aliquoted at 100 μL/well to stop the reaction. A microplate reader was used to measure the absorbance at 450 nm with a wavelength of 650 nm as the reference wavelength.

IgV domain of B7-H3 = molecular target: T2, IgV domain of B7-H3 (human, UniProt Q5ZPR3 30-130); experiment: ELISA on coated antigen, IgG1 antibody
T2 sequence: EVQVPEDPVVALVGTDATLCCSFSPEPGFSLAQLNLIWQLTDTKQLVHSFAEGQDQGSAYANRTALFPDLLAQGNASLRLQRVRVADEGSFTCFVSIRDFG
Protocol: Protein binding: 100 μL of antigen B7-H3 (R&D) at 20 ng/ml was coated onto microplate, incubated at 2-8° C. overnight. Subsequently, 100 μL of the prepared full-length IgG1 antibody described above was added with a total of 8 concentrations started from 2000 ng/ml and serially diluted with 3-fold, incubating at 37° C., 600 rpm for 1 hour. After the plate was washed for three times, Goat anti human IgG (Fc)-HRP enzyme-linked antibody was added and the plate was shook at 37° C. and 600 rpm for 1 hour. After the plate was washed for 4 times, TMB chromogenic solution was aliquoted in and incubated for 10 minutes, then 1 mol/L […] stop solution at 100 μL/well was aliquoted to stop the reaction and the absorbance was measured.

B1: P3B9 scFv (scFv)
scFv: QIQLVQSGAEVKKPGESLKISCKGSGYSFTSYWIGWVRQMPGKGLEWMGIIYPGDSDTRYSPSFQGQVTISADKSISTAYLQWSSLKASDTAMYYCARRTPRGMDVWGQGTTVTVSSGSASAPTLGQGGGGGSGGGGSGGGGSQAVLTQPPSASGTPGQRVTISCSGSSSNIGSNYVYWYQQLPGTAPKLLIYRNNQRPSGVPDRFSGSKSGTSASLAISGLRSEDEADYYCAAWDDSLSGWVFGGGTKLTVL
For B1, the “ELISA signal value of Phage scFv” value [1] was 3.09 absorbance 450 nm and the “ELISA signal value of protein scFv” value [2] was 3.39 absorbance 450 nm.

B2: P1D1 scFv (scFv)
scFv: QVQLVQSGAEVKKPGESLKISCKGSGYSFTSYWIGWVRQMPGKGLEWMGIIYPGDSDTRYSPSFQGQVTISADKSISTAYLQWSSLKASDTAMYYCARRSVAGLDYWGQGTLVTVSSGSASAPTLGQGGGGGSGGGGSGGGGSKTVVTQPPSASGTPGQRVTISCSGSSSNIGSKYVYWYQQLPGTAPRLLIYRNNQRPSGVPDRFSGSKSGTSASLAISGLRSEDESDYYCASWDDRLKGYAFGTGTKVTVL
B2 was tested, and the “ELISA signal value of Phage scFv” value [1] was 3.65 absorbance 450 nm and the “ELISA signal value of protein scFv” value [2] was 2.97 absorbance 450 nm.

B3: P2E5 scFv (scFv)
scFv: QVTLKESGGGLVQPGGSLRLSCAASGFTFSNSYMTWVRQAPGMGLEWVASMKPDGSVKHYVDSVKGRFTISRDNTKNSLDLQMNSLRAEDTAVYYCSSYDTRWGWFDPWGEGTLVTVSSGSASAPTLGQGGGGGSGGGGSGGGGSQTVVTQEPSFSVSPGGTVTLTCGLNSGSVSTSYFPSWYQQTPGQAPRTLIYNTNTRSSGVPDRFSGSILGNKAALTITGAQADDESDYYCLLYMDSGPHWVFGGGTKLTVL
For B3, the “ELISA signal value of Phage scFv” value [1] was 0.74 absorbance 450 nm and the “ELISA signal value of protein scFv” value [2] was 0.84 absorbance 450 nm.

B4: P9A12 full-length IgG1 antibody (antibody, V domains shown)
VH: QVTLKESGGGLVQPGGSLRLSCAASGFTFSSYAMSWVRQAPGKGLEWVSAISGSGGSTYYADSVKGRFTISRDNSKNTLYLQMNSLRAEDTAVYYCARGAGIDAFDIWGQGTMVTVSS
VL: QSALTQPASVSGSPGQSITISCTGTSSDVGAYNYVTWYQQYPGKAPKLMIYDVSERPSGVSNRFSGSKSGNTASLTISGLQAEDEADYYCSSFTSSISWVFGGGTKLTVL
B4 was tested, and the ELISA signal value (IgV domain of B7-H3) was 0.3 to 0.5 elisasignalvalue.

B5: P7F10 full-length IgG1 antibody (antibody, V domains shown)
VH: QVQLQQSGGGLVQPGGSLRLSCAASGFTFSSYPMSWVRQAPGKGLEWVSVISGSGGSTFYADSVKGRFTISRDNSKNTLYLQVNSLRAEDTAVYYCAKDGRTLSGMDVWGQGTTVTVSS
VL: QPVLTQPPSASGTPGQRVTISCSGSSSNIGSNPVNWYQQLPGTAPKLLIYNNNQRPSGVPDRFSGSKSGTSGSLAISGLQSEDEAHYYCAAWDVSLKEVFGGGTKVTVL
B5 showed an ELISA signal value (IgV domain of B7-H3) of 0.6 to 1.5 elisasignalvalue.

B6: P1G2 scFv (scFv)
scFv: QVQLQQSGAEVKKPGSSVKVSCKASGGTFSSYAISWVRQAPGQGLEWMGRIIPILGIANYAQKFQGRVTITADKSTSTAYMELSSLRSEDTAVYYCAVNYYDSSGYYSDYWGQGTLVTVSSGSASAPTLGQGGGGGSGGGGSGGGGSSYELTQPPSASGSPGQSVTISCTGTSSDVGGYNYVSWYQQHPGKAPRLMIYGVSQRPSGVPDRFSGSKSGNTASLTVSGLQAEDEADYYCSSYANNNYVFGTGTKVTVL
B6 was tested, and the “ELISA signal value of Phage scFv” value [1] was 3.55 absorbance 450 nm and the “ELISA signal value of protein scFv” value [2] was 0.54 absorbance 450 nm.

B7: P2E3 scFv (scFv)
scFv: QVQLVQSGAEVKKPGESLKISCKGSGYSFTSYWIGWVRQMPGKGLEWMGIIYPGDSDTRYSPSFQGQVTISADKSISTAYLQWSSLKASDTAMYYCARRSREGFDPWGQGTLVTVSSGSASAPTLGQGGGGGSGGGGSGGGGSQAVLTQPSSASGTPGQRVTMSCSGAASNIGKNFVYWYQQLPGRAPRLLISRNIQRPSEVPDRFSGSKSGTSASLAISGLQSEDEADYYCAAWDDSLNGFVFGTGTAVTVL
In the case of B7, the “ELISA signal value of Phage scFv” value [1] is reported as 3.54 absorbance 450 nm and the “ELISA signal value of protein scFv” value [2] is reported as 3.58 absorbance 450 nm.

Source: patent publication US20220017620A1 (SHANGHAI FUDAN ZHANGJIANG BIO PHARMACEUTICAL, published 2022)
